The text below walks through data of US20180142030A1 (Bristol-Myers Squibb, published 2018).

The chains are these.
B1: 12D6-03 (antibody, human IgG1, kappa, V domains shown)
VH: QVQLVQSGAEVKKPGASVKVSCKASGYTFTGYNMNWVRQAPGQGLEWMGNIDPYYGNTNYNQKFKGRVTMTTDTSTSTAYMELRSLRSDDTAVYYCARLGLQLYAMDYWGQGTTVTVSS
VL: DIVMTQTPLSLPVTPGEPASISCRSSQSLVHSNGNTYLHWYLQKPGQSPQLLIYKLTNRFFGVPDRFSGSGSGTDFTLKISRVEAEDVGVYYCSQSIHVPWTFGGGTKVEIKR
notes: Humanized
B2: 8E8-62 (antibody, human IgG1, kappa, V domains shown)
VH: QVQFVQSGAEVKKPGSSVKVSCKASGYTFTSYWMQWVRQAPGQGLEWMGTIYPGDGDSRYNQKFKGKALLTADKSTSTAYMELSSLRSEDTAVYYCARFSLYEGYPYYFDYWGQGTTVTVSS
VL: DIVMTQSPLSLPVTPGEPASISCRSSQSLVHRNGNTYLHWYLQKPGQSPQLLIYRVSNRFSGVPDRFSGSGSGTDFTLKISRVEAEDVGVYYCSQSTHFPYTFGGGTKVEIKR
notes: Humanized; IgG1f
B3: 19G3-11 (antibody, human IgG1, kappa, V domains shown)
VH: EVQLVESGGGLVKPGGSLRLSCAASGFTFSSYAMSWVRQAPGKGLEWVSEISGGGSYTYYPDTVTGRFTISRDNAKNSLYLQMNSLRAEDTAVYYCASRAYWGQGTLVTVSS
VL: DIVMTQTPLSLPVTPGEPASISCRSSQSIVHSNGNTYFEWYLQKPGQSPQLLIYKVSNRFSGVPDRFSGSGSGTDFTLKISRVEAEDVGVYYCFQGSHVPYTFGGGTKVEIKR
notes: Humanized; IgG1f
B4: 12D6-23 (antibody, human IgG1, kappa, V domains shown)
VH: QVQLVQSGAEVKKPGASVKVSCKASGYTFTGYNMNWVRQAPGQGLEWMGNIDPYYGNTNYNQKFKGRVTMTTDTSTSTAYMELRSLRSDDTAVYYCARLGLQLYALDYWGQGTTVTVSS
VL: DIVMTQTPLSLPVTPGEPASISCRSSQSLVHSNGNTYLHWYLQKPGQSPQLLIYKLTNRFFGVPDRFSGSGSGTDFTLKISRVEAEDVGVYYCSQSIHVPWTFGGGTKVEIKR
notes: Humanized; IgG1f
B5: 19G3-22 (antibody, human IgG1, kappa, V domains shown)
VH: EVQLVESGGGLVKPGGSLRLSCAASGFTFSSYAMSWVRQAPGKGLEWVSEISGGGSYTYYPDTVTGRFTISRDNAKNSLYLQMNSLRAEDTAVYYCASRAYWGQGTLVTVSS
VL: DIVMTQTPLSLPVTPGEPASISCRSSQSIVHSQGNTYFEWYLQKPGQSPQLLIYKVSNRFSGVPDRFSGSGSGTDFTLKISRVEAEDVGVYYCFQGSHVPYTFGGGTKVEIKR
notes: Humanized; IgG1f
B6: 12D6-22 (antibody, human IgG1, kappa, V domains shown)
VH: QVQLVQSGAEVKKPGASVKVSCKASGYTFTGYNMNWVRQAPGQGLEWMGNIDPYYGNTNYNQKFKGRVTMTTDTSTSTAYMELRSLRSDDTAVYYCARLGLQLYAMDYWGQGTTVTVSS
VL: DIVMTQTPLSLPVTPGEPASISCRSSQSLVHSNANTYLHWYLQKPGQSPQLLIYKLTNRFFGVPDRFSGSGSGTDFTLKISRVEAEDVGVYYCSQSIHVPWTFGGGTKVEIKR
notes: Humanized; IgG1f
B7: 12D6-24 (antibody, human IgG1, kappa)
heavy: not shown
light: DIVMTQTPLSLPVTPGEPASISCRSSQSLVHSNANTYLHWYLQKPGQSPQLLIYKLTNRFFGVPDRFSGSGSGTDFTLKISRVEAEDVGVYYCSQSIHVPWTFGGGTKVEIKRTVAAPSVFIFPPSDEQLKSGTASVVCLLNNFYPREAKVQWKVDNALQSGNSQESVTEQDSKDSTYSLSSTLTLSKADYEKHKVYACEVTHQGLSSPVTKSFNRGEC
notes: Humanized; IgG1f; also called 12D6-24 IgG1f; mAb 12D6-24 human IgG1f (control)
B8: 8E8-66 (antibody, human IgG1, kappa, V domains shown)
VH: QVQFVQSGAEVKKPGSSVKVSCKASGYTFTSYWMQWVRQAPGQGLEWMGTIYPGDGDSRYNQKFKGKALLTADKSTSTAYMELSSLRSEDTAVYYCARFSLYDGYPYYFDYWGQGTTVTVSS
VL: DIVMTQSPLSLPVTPGEPASISCRSSQSLVHRNANTYLHWYLQKPGQSPQLLIYRVSNRFSGVPDRFSGSGSGTDFTLKISRVEAEDVGVYYCSQSTHFPYTFGGGTKVEIKR
B9: 19G3-23 (antibody, human IgG1, kappa, name in Kabat numbering, V domains shown)
VH: EVQLVESGGGLVKPGGSLRLSCAASGFTFSSYAMSWVRQAPGKGLEWVSEISGGGSYTYYPDTVTGRFTISRDNAKNSLYLQMNSLRAEDTAVYYCASRAYWGQGTLVTVSS
VL: DIVMTQTPLSLPVTPGEPASISCRSSQSIVHSNANTYFEWYLQKPGQSPQLLIYKVSNRFSGVPDRFSGSGSGTDFTLKISRVEAEDVGVYYCFQGSHVPYTFGGGTKVEIKR
notes: Heavy chain inferred from the identical VH description (VH3-21 S94R) of 19G3-11; Light chain is the VKII O11 CDR graft of 19G3-11 with G29A
B10: 8E8-56 (antibody, human IgG1, kappa, V domains shown)
VH: QVQFVQSGAEVKKPGSSVKVSCKASGYTFTSYWMQWVRQAPGQGLEWMGTIYPGDGDSRYNQKFKGKALLTADKSTSTAYMELSSLRSEDTAVYYCARFSLYDGYPYYFDYWGQGTTVTVSS
VL: DIVMTQSPLSLPVTPGEPASISCRSSQSLVHRNGNTYLHWYLQKPGQSPQLLIYRVSNRFSGVPDRFSGSGSGTDFTLKISRVEAEDVGVYYCSQSTHFPYTFGGGTKVEIKR
notes: Humanized; IgG1f
B11: 5F11-17 (antibody, human IgG1, kappa)
heavy: not shown
light: DIVMTQSPDSLAVSLGERATINCRASKNVDSYGNSFMHWYQQKPGQPPKLLIYRASNLESGVPDRFSGSGSGTDFTLTISSLQAEDVAVYYCQQSNEDPLTFGQGTKLEIKRTVAAPSVFIFPPSDEQLKSGTASVVCLLNNFYPREAKVQWKVDNALQSGNSQESVTEQDSKDSTYSLSSTLTLSKADYEKHKVYACEVTHQGLSSPVTKSFNRGEC
notes: Humanized; IgG1f
B12: 5F11-23 (antibody, human IgG1, kappa)
heavy: not shown
light: DIVLTQSPDSLAVSLGERATISCRASKNVDSYGNSFMHWYQQKPGQPPKLLIYRASNLESGVPDRFSGSGSGTDFTLTISSLQAEDVAVYYCQQSNEDPLTFGQGTKLEIKRTVAAPSVFIFPPSDEQLKSGTASVVCLLNNFYPREAKVQWKVDNALQSGNSQESVTEQDSKDSTYSLSSTLTLSKADYEKHKVYACEVTHQGLSSPVTKSFNRGEC
notes: Humanized; IgG1f
B13: 5F11-45 (antibody, human IgG1, kappa)
heavy: not shown
light: DIVLTQSPDSLAVSLGERATINCRASKNVDSYGNSFMHWYQQKPGQPPKLLIYRASNLESGVPDRFSGSGSGTDFTLTISSLQAEDVAVYYCQQSNEDPLTFGQGTKLEIKRTVAAPSVFIFPPSDEQLKSGTASVVCLLNNFYPREAKVQWKVDNALQSGNSQESVTEQDSKDSTYSLSSTLTLSKADYEKHKVYACEVTHQGLSSPVTKSFNRGEC
notes: Humanized; IgG1f
B14: 5G7 (parental) (antibody, V domains shown)
VH: EVLLQQSGPELVKPGASVKIPCKASGYKFTDYNMDWVKQSHGKSLEWIGDINPKNGGTIYNLKFKGKATLTVDMSSSTAYMELRSLTSEDTAVYYCVRRMDYWGQGTSVTVSS
VL: DIQMTQTTSSLSASLGDRVTISCRASQDISNYLNWYQQKPDGTVKLLIYYISRLHSGVPSRFRGSGSGTDFSLTISNLEQEDIATYFCQQGNTLPYTFGGGTNLEIK
notes: Mouse variable domains; also called 1802.3583.5G7.F12.G3; mAb 5G7
B15: 5G7-25 (antibody, human IgG1, kappa, V domains shown)
VH: QVQLVQSGAEVKKPGASVKVSCKASGYTFTDYNMDWVRQAPGQGLEWMGDINPKNAGTIYNLKFKGRVTLTVDTSTSTAYMELRSLRSDDTAVYYCVRRMDYWGQGTTVTVSS
VL: DIQMTQSPSSLSASVGDRVTITCRASQDISNYLNWYQQKPGKVPKLLIYYISRLHSGVPSRFSGSGSGTDFTLTISSLQPEDVATYYCQQGNTLPYTFGGGTKVEIKR
notes: Humanized; IgG1f
B16: 5G7-22 (antibody, human IgG1, kappa, V domains shown)
VH: QVQLVQSGAEVKKPGASVKVSCKASGYTFTDYNMDWVRQAPGQGLEWMGDINPKNGGTIYNLKFKGRVTLTTDTSTSTAYMELRSLRSDDTAVYYCVRRMDYWGQGTTVTVSS
VL: DIQMTQSPSSLSASVGDRVTITCRASQDISNYLNWYQQKPGKVPKLLIYYISRLHSGVPSRFSGSGSGTDFTLTISSLQPEDVATYYCQQGNTLPYTFGGGTKVEIKR
notes: Humanized; IgG1f
B17: 5G7-28 (antibody, human IgG1, kappa, name in Kabat numbering, V domains shown)
VH: QVQLVQSGAEVKKPGASVKVSCKASGYTFTDYNMDWVRQAPGQGLEWMGDINPKNAGTIYNLKFKGRVTLTVDTSTSTAYMELRSLRSDDTAVYYCVRRLDYWGQGTTVTVSS
VL: DIQMTQSPSSLSASVGDRVTITCRASQDISNYLNWYQQKPGKVPKLLIYYISRLHSGVPSRFSGSGSGTDFTLTISSLQPEDVATYYCQQGNTLPYTFGGGTKVEIKR
B18: 19G3 (parental) (antibody, V domains shown)
VH: EVQLVESGGGLVKPGGSLKLSCAASGFTFSSYAMSWVRQSPEKRLEWVAEISGGGSYTYYPDTVTGRFTISRDNAKNTLYLEMSSLRSEDTAMYYCASRAYWGQGTLVTVSA
VL: DVLMTQTPLSLPVSLGDQASISCRSSQSIVHSNGNTYFEWYLQKPGQSPKLLIYKVSNRFSGVPDRFSGSGSGTDFTLKISRVEAEDLGVYYCFQGSHVPYTFGGGTKLEIK
notes: Mouse variable domains; also called 1802.3582.19G3.F10.E1; mAb 19G3
B19: 12D6 (parental) (antibody, V domains shown)
VH: EVQLQQSGPELEKPGASVKMSCKASGYSFTGYNMNWVKQSNGKSLEWIGNIDPYYGNTNYNQKFKGKATLTVDKSSSTAYLQLKSLTSEDSAVYYCARLGLQLYAMDYWGQGTSVTVSS
VL: DVVMTQTPLSLPVSLGDQASISCRSSQSLVHSNGNTYLHWYLQKPGQSPNLLIYKLTNRFFGVPDRFSGSGSGTDFTLKISRVEAEDLGVYFCSQSIHVPWTFGGGTKLEIK
notes: Mouse variable domains; also called 1802.3716.12D6.B1.E3; mAb 12D6
B20: 8E8 (parental) (antibody, V domains shown)
VH: QVQFQQSGAELARPGASVKLSCKASGYTFTSYWMQWVKQRPGQGLEWIGTIYPGDGDSRYNQKFKGKALLTADKSSSIAYMQLNSLASEDSAVYFCARFSLYDGYPYYFDYWGQGTTLTVSS
VL: DVVMTQTPLSLPVSLGDQASISCRSSQSLVHRNGNTYLHWYLQKPGQSPKLLIYRVSNRFSGVPDRFSGSGSGTDFTLKISRVEAEDLGIYFCSQSTHFPYTFGGGTKLEIK
notes: Mouse variable domains; also called 1802.3583.8E8.C10.G2; mAb 8E8

The target of this experiment is T1, recombinant human CD40 monomer (human, UniProt P25942 21-193).
T1 construct: also called huCD40-monomer; soluble human CD40
T1 sequence (P25942 21-193 limits assumed): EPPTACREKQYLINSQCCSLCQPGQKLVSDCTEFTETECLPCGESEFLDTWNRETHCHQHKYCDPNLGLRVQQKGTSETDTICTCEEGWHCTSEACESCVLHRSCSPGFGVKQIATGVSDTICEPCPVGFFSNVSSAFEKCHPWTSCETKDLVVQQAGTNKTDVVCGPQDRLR
In words: BLI (Octet RED); antibody supernatant captured on protein A sensors, huCD40-monomer in solution. The text has this:
The closest matching human germline region sequence was selected for each mouse variable domain, and these human framework regions were used to replace murine frameworks in the “CDR graft” versions of the antibodies. Additional amino acid substitutions, such as framework back-mutations, were then made as necessary to restore the binding affinity of the humanized antibody. Further amino acid substitutions were made to eliminate sequence liabilities. The sequence relationships between the various forms of the antibodies of the present invention are provided at Table 6. The binding of various agonistic anti-huCD40 antibodies to soluble human CD40 was determined by Biolayer Interferometry (BLI) analysis using a Fortebio Octet RED (Rapid system—Extended Detection) label-free interaction analysis instrument. All studies were performed in 10 mM NaₓPO₄, 130 mM NaCl, 0.05% Surfactant P20 (pH 7.1) at 25° C. Briefly, anti-huCD40 antibody supernatants (diluted to 10 μg/ml or captured undiluted if supernatant concentration was less than 10 μg/ml) were captured on protein A coated biosensors (Pall Fortebio #18-5010) using a loading time of 90 s and shake speed of 1000 rpm. Supernatants were first screened for binding to 1 μM recombinant human CD40 monomer (huCD40-monomer) using 180 s association and dissociation times, at 1000 rpm, with two 15 s conditioning steps using 10 mM glycine pH 1.5 in between binding cycles.
(In general: Biolayer interferometry detects binding as a change in optical thickness at a sensor tip.)
For orientation: Kd means the equilibrium constant for the complex coming apart. With B1, the Kd is 4.8 nM.
For B2, the equilibrium dissociation constant (Kd) stood at 31 nM.
Regarding B3, the Kd was 850 nM.
For the molecule B4, the Kd came out at 4.3 nM.
The result for B5 reads 99 nM.
To B6 belongs 3.6 nM.
To B7 belongs 5.6 nM; to B8, 82 nM; to B9, 1300 nM.
For the molecule B10, the Kd was determined as 82 nM.
As to B11, the Kd is 8.4 nM.
The result for B12 reads 4.9 nM; that for B13, 12.3 nM; that for B14, 89 nM.
The result for B15 reads 69 nM; that for B16, 50 nM; that for B17, 230 nM.
The result for B18 reads 870 nM.
B19: the Kd came to 3.6 nM.
In the case of B20, the Kd is 85 nM.
